# Test results: article PMC10716449
# Molecular target: T1, ybbR-CENP-B-His6 (full length, JF549-labelled for smTIRF) (UniProt P07199)
# T1 sequence: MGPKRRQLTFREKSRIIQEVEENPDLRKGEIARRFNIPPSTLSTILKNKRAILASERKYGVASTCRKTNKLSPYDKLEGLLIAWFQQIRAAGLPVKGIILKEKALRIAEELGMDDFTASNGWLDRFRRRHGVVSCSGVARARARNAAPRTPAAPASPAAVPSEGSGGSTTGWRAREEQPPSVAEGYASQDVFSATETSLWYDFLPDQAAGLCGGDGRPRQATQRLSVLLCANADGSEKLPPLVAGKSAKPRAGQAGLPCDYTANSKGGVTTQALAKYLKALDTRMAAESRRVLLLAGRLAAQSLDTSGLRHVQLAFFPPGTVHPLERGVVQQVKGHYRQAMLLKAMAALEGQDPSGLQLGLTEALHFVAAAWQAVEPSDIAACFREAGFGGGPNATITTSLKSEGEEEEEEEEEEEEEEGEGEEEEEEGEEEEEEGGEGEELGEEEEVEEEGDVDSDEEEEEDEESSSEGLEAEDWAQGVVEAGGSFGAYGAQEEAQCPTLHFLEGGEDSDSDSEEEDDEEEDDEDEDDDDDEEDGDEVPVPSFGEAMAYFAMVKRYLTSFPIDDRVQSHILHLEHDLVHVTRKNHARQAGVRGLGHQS
# Assay: single-molecule colocalization (smTIRF)
# Settings: smTIRF: about 5 nM CENP-B, 150 mM salt, EMSA: 10 mM Tris pH 7.5, 130 mM KCl, 3.2% glucose, 30 min at room temperature
substance,measurement,setting,value
CENP-A 12x601 chromatin fiber DA3BB (1 B-Box at N6),"binding signal (s (tau off,2))","150 mM KCl, tau_off,1 4.9 s (67%), A2 33%, amino-C6-dT, 5% PAGE in 0.25x …",51.4
GATCGGTCTCATAGCCTTCGTTGGAAACGGGAGAATCCCGGTGCCGAGGCCGCTCAATTGGTCGTAGACAGCTCTAGCACCGCTTAAACGCACGTACGCGCTGTCCCCCGCGTTTTAACCGCCAAGGGGATTACTCCCTAGTCTCCAGGCACGTGTCAGATATATACATCCTGTCACACTGTGGATC (double strand) [H3 1x601 BB mononucleosome],"binding signal (s (tau off,2))","tau_off,1 6.87 s (66%), A2 34%, amino-C6-dT on reverse strand, 5% PAGE in 0.25x TBE",48.3
H3 12x601 chromatin fiber DA3BB (1 B-Box at N6),"binding signal (s (tau off,2))","150 mM KCl, tau_off,1 3.6 s (47%), A2 52%, amino-C6-dT, 5% PAGE in 0.25x …",17.6
GATCGGTCTCATAGCCTTCGTTGGAAACGGGAGAATCCCGGTGCCGAGGCCGCTCAATTGGTCGTAGACAGCTCTAGCACCGCTTAAACGCACGTACGCGCTGTCCCCCGCGTTTTAACCGCCAAGGGGATTACTCCCTAGTCTCCAGGCACGTGTCAGATATATACATCCTGTCACACTGTGGATC (double strand) [CENP-A 1x601 BB mononucleosome],"binding signal (s (tau off,2))","tau_off,1 6.8 s (51%), A2 49%, amino-C6-dT on reverse strand (smTIRF), 5% PAGE in 0.25x TBE",50.2
GATCGGTCTCATAGCCTGGAGAATCCCGGTGCCGAGGCCGCTCAATTGGTCGTAGACAGCTCTAGCACCGCTTAAACGCACGTACGCGCTGTCCCCCGCGTTTTAACCGCCAAGGGGATTACTCCCTAGTCTCCAGGCACGTGTCAGATATATACATCCTGTCACACTGTGGATC (double strand) [H3 1x601 mononucleosome (no B-Box)],"binding signal (s (tau off,2))","tau_off,1 3.4 s (51%), A2 49%, amino-C6-dT on reverse strand, 5% PAGE in 0.25x TBE",15.2
